Measurements taken from article PMC10333360, “Establishing mammalian GLUT kinetics and lipid composition influences in a reconstituted-liposome system” (Nature Communications, 2023).

Legend:
[1] = substrate: OC[C@H]1OC(O)[C@H](O)[C@@H](O)[C@@H]1O; assay: zero-trans transport kinetics in proteoliposomes (KM); type: biochemical, Homo sapiens
[2] = substrate: OC[C@H]1OC(O)[C@H](O)[C@@H](O)[C@@H]1O; assay: purified protein

Protein	Km [1] [µM]	Km [2] [µM]
hGLUT4 (Homo sapiens) (protein) MPSGFQQIGSEDGEPPQQRVTGTLVLAVFSAVLGSLQFGYNIGVINAPQKVIEQSYNETWLGRQGPEGPSSIPPGTLTTLWALSVAIFSVGGMISSFLIGIISQWLGRKRAMLVNNVLAVLGGSLMGLANAAASYEMLILGRFLIGAYSGLTSGLVPMYVGEIAPTHLRGALGTLNQLAIVIGILIAQVLGLESLLGTASLWPLLLGLTVLPALLQLVLLPFCPESPRYLYIIQNLEGPARKSLKRLTGWADVSGVLAELKDEKRKLERERPLSLLQLLGSRTHRQPLIIAVVLQLSQQLSGINAVFYYSTSIFETAGVGQPAYATIGAGVVNTVFTLVSVLLVERAGRRTLHLLGLAGMCGCAILMTVALLLLERVPAMSYVSIVAIFGFVAFFEIGPGPIPWFIVAELFSQGPRPAAMAVAGFSNWTSNFIIGMGFQYVAEAMGPYVFLLFAVLLLGFFIFTFLRVPETRGRTFDQISAAFHRTPSLLEQEVKPSTELEYLGPDEND	8200	–
GLUT1 (Homo sapiens) (protein) MEPSSKKLTGRLMLAVGGAVLGSLQFGYNTGVINAPQKVIEEFYNQTWVHRYGESILPTTLTTLWSLSVAIFSVGGMIGSFSVGLFVNRFGRRNSMLMMNLLAFVSAVLMGFSKLGKSFEMLILGRFIIGVYCGLTTGFVPMYVGEVSPTALRGALGTLHQLGIVVGILIAQVFGLDSIMGNKDLWPLLLSIIFIPALLQCIVLPFCPESPRFLLINRNEENRAKSVLKKLRGTADVTHDLQEMKEESRQMMREKKVTILELFRSPAYRQPILIAVVLQLSQQLSGINAVFYYSTSIFEKAGVQQPVYATIGSGIVNTAFTVVSLFVVERAGRRTLHLIGLAGMAGCAILMTIALALLEQLPWMSYLSIVAIFGFVAFFEVGPGPIPWFIVAELFSQGPRPAAIAVAGFSNWTSNFIVGMCFQYVEQLCGPYVFIIFTVLLVLFFIFTYFKVPETKGRTFDEIASGFRQGGASQSDKTPEELFHPLGADSQV	–	2000
hGLUT3 (Homo sapiens) (protein) MGTQKVTPALIFAITVATIGSFQFGYNTGVINAPEKIIKEFINKTLTDKGNAPPSEVLLTSLWSLSVAIFSVGGMIGSFSVGLFVNRFGRRNSMLIVNLLAVTGGCFMGLCKVAKSVEMLILGRLVIGLFCGLCTGFVPMYIGEISPTALRGAFGTLNQLGIVVGILVAQIFGLEFILGSEELWPLLLGFTILPAILQSAALPFCPESPRFLLINRKEEENAKQILQRLWGTQDVSQDIQEMKDESARMSQEKQVTVLELFRVSSYRQPIIISIVLQLSQQLSGINAVFYYSTGIFKDAGVQEPIYATIGAGVVNTIFTVVSLFLVERAGRRTLHMIGLGGMAFCSTLMTVSLLLKDNYNGMSFVCIGAILVFVAFFEIGPGPIPWFIVAELFSQGPRPAAMAVAGCSNWTSNFLVGLLFPSAAHYLGAYVFIIFTGFLITFLAFTFFKVPETRGRTFEDITRAFEGQAHGADRSGKDGVMEMNSIEPAKETTTNV	–	1400
